The target of data set [1] is T1, Ku70;Ku80;DNA polymerase mu (Homo sapiens?;Homo sapiens?;Homo …, UniProt P12956;P13010;Q9NP87 1-609;1-732;1-494, ||). As to conditions: protein: recombinant;recombinant;recombinant; copies: 1;1;1; two duplexes: S3/S6 13 bp with 3' overhang GC on S3; S5/S4 11 bp with 3' overhang AGC on S5; GC microhomology between overhangs.
For the next data set, the target named is Ku70;Ku80 (Homo sapiens?;Homo sapiens?, UniProt P12956;P13010 1-609;1-732, |). The note with it: protein: recombinant;recombinant; copies: 1;1; label: biotin; fork: 35 bp duplex (1:21-55 with 2:1-35), 5' tail 20 nt on strand 1, 3' tail 7 nt on strand 2; the tail ends (1:1-7, 2:36-42) are also complementary.
Chain of Ku70;Ku80 (P12956 whole entry, chain 1 of 2): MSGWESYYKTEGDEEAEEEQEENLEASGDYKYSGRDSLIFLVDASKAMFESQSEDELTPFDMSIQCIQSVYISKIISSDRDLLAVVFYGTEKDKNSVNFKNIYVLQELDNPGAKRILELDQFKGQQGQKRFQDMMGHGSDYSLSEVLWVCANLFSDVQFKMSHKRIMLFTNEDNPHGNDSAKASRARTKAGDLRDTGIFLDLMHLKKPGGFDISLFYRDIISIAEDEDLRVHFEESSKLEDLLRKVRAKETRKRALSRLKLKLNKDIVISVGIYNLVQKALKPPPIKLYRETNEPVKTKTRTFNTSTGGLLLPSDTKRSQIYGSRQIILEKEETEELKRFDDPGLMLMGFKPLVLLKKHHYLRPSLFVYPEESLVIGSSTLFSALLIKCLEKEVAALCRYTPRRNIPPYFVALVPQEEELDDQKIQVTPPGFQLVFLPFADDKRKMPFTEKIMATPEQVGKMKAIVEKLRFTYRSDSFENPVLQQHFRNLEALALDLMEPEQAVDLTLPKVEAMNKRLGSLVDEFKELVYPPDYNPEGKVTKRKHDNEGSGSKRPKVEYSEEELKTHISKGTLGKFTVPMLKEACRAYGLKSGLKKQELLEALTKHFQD
Chain of Ku70;Ku80 (P13010 whole entry, chain 2 of 2): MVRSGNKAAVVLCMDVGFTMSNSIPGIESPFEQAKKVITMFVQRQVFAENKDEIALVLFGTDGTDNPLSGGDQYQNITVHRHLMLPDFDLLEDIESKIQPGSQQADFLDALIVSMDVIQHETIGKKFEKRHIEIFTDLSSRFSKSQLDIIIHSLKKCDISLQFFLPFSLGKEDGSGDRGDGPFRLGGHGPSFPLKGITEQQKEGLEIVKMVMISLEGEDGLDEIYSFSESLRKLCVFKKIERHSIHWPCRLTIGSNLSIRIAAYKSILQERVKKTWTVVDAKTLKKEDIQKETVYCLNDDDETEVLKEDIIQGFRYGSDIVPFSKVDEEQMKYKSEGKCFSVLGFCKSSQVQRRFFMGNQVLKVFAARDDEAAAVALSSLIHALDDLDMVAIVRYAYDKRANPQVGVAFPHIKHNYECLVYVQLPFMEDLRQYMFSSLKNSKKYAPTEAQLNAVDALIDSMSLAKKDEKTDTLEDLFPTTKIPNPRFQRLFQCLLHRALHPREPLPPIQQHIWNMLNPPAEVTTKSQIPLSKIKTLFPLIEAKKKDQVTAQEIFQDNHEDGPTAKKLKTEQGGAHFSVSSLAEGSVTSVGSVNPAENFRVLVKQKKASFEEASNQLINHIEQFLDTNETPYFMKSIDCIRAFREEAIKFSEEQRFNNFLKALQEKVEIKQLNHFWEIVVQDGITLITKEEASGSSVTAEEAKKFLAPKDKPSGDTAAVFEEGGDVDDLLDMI
For data set [2], the target named is T1, Ku70;Ku80;DNA polymerase mu. As to conditions: protein: recombinant;recombinant;recombinant; copies: 1;1;1; label: biotin; fork: 35 bp duplex (1:21-55 with 2:1-35), 5' tail 20 nt on strand 1, 3' tail 7 nt on strand 2; the tail ends (1:1-7, 2:36-42) are also complementary.
Data set [3] deals with Ku70;Ku80;DNA polymerase lambda (Homo sapiens?;Homo sapiens?;Homo …, UniProt P12956;P13010;Q9UGP5 1-609;1-732;1-575, ||). As to conditions: protein: recombinant;recombinant;recombinant; copies: 1;1;1; label: biotin; fork: 35 bp duplex (1:21-55 with 2:1-35), 5' tail 20 nt on strand 1, 3' tail 7 nt on strand 2; the tail ends (1:1-7, 2:36-42) are also complementary.
Chain of Ku70;Ku80;DNA polymerase lambda (P12956 whole entry, chain 1 of 3): as the sequence (P12956 whole entry, chain 1 of 2) above
Chain of Ku70;Ku80;DNA polymerase lambda (P13010 whole entry, chain 2 of 3): as the sequence (P13010 whole entry, chain 2 of 2) above
Chain of Ku70;Ku80;DNA polymerase lambda (Q9UGP5 whole entry, chain 3 of 3): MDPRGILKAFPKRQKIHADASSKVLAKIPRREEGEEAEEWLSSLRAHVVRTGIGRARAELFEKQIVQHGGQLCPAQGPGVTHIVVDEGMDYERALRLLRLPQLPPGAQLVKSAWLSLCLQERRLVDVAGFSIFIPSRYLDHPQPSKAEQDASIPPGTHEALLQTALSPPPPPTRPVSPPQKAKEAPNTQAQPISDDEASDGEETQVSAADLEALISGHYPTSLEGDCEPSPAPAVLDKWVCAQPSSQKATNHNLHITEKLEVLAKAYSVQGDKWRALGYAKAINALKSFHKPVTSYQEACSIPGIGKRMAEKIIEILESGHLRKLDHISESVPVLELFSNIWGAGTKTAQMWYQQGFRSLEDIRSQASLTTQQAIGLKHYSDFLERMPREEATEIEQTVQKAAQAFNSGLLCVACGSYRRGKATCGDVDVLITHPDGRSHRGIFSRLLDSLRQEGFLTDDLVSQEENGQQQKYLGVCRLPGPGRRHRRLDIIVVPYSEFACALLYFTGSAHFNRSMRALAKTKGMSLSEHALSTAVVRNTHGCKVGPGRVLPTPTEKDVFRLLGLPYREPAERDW

We go through 2 molecules from PMC12056208.

Like-named read-outs stand apart in the source and are kept apart here.

T1 sequence (P12956 whole entry, chain 1 of 3): as the sequence (P12956 whole entry, chain 1 of 2) above
T1 sequence (P13010 whole entry, chain 2 of 3): as the sequence (P13010 whole entry, chain 2 of 2) above
T1 sequence (Q9NP87 whole entry, chain 3 of 3): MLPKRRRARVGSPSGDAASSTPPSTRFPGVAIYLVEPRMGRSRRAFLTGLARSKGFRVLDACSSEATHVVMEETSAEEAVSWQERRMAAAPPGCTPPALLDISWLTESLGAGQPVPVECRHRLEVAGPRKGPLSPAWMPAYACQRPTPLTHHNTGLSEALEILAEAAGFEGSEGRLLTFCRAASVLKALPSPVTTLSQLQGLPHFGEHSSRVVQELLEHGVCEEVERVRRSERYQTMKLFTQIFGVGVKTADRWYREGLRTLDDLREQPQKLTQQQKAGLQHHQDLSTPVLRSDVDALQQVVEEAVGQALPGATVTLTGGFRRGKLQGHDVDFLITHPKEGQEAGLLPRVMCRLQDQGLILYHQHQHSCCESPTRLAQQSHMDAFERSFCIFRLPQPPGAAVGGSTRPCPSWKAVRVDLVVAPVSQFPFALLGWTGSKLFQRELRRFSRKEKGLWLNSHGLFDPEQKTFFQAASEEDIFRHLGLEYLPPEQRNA

B1: Microhomology DNA for Pol mu (dsDNA)
DNA 1: GGTGCAGCACAGTGC
DNA 2: ACTGTGCTGCACC
DNA 3: GACTGCACGGCAGC
DNA 4: GCCGTGCAGTC
With B1, the binding result in data set [1] is reported as “binds”.

B2: Y-shaped 42-55 DNA (dsDNA)
DNA 1: CGCGCCCAGCTTTCCCAGCTAATAAACTAAAAACTATTATTATGGCCGCACGCGT
DNA 2: ACGCGTGCGGCCATAATAATAGTTTTTAGTTTATTGGGCGCG
modifications: 5' biotin on strand 1
As for B2, the binding result (with Ku70;Ku80; in data set [2]; in data set [3]) was “binds” each time.
